According to patent US20160002355A1 (Genentech, published 2016):

Experiments:
[1] = molecular target: T1, anti-Complex I antibody (anti-HCMV antibody); assay: anti-CI clinical PK ELISA; coat 4.25B10.15 0.75 ug/mL; 8G8 4 ug/mL; against unspiked human serum
T1 construct: also called anti-CI; anti-CI antibody
Protocol: (§1) Microtiter plates are coated overnight at 2-8° C. with 100 μl per well of 0.75 μg/ml anti-CI idiotypic antibody (in 0.05 M sodium carbonate buffer, pH 9.6±0.1). The plates are washed three times with 400 μl per well per cycle of wash buffer. 200 μl per well of blocking buffer (PBS/0.5% BSA/0.05% polysorbate 20/0.05% ProClin 300, pH 7.4±0.1) is added, and the plates are incubated at room temperature with shaking for 1-3 hours. Standard curves are prepared with standard/sample diluent (assay diluent with 0.5% normal pooled human serum; assay diluent is composed of PBS/0.5% BSA/0.05% polysorbate-20/0.35 M NaCl/0.25% CHAPS/5mM EDTA/0.05% ProClin 300, pH 7.4±0.1). The plates are washed three times with 400 μl per well per cycle of wash buffer. Diluted standards, controls and samples are added to plates at 100 μl per well, in duplicate. The plates are incubated at room temperature with shaking for 2 hours +10 minutes. The plates arc washed four times with 400 μl per well per cycle of wash buffer. HRP conjugates diluted in conjugate buffer (PBS/0.5% BSA/0.05% polysorbate 20/0.05% ProClin 300, pH 7.4±0.1) are added at 100 μl per well. […] The plates are read using a 450 nm read wavelength and a 620 or 630 nm reference wavelength. […]

[2] = molecular target: T1, anti-Complex I antibody (anti-HCMV …); assay: anti-CI clinical PK ELISA standard curve; anti-CI 5 ug/mL in 0.5% human serum pool; against background
Protocol: as §1

[3] = molecular target: T1, anti-Complex I antibody (anti-HCMV …); assay: anti-CI clinical PK ELISA; coat 4.25B10.15 0.5 ug/mL; 8G8 0.125 ug/mL; against unspiked human serum
Protocol: as §1, with “The” for “Microtiter plates are coated overnight at 2-8° C. with 100 μl per well of 0.75 μg/ml anti-CI idiotypic antibody (in 0.05 M sodium carbonate buffer, pH 9.6±0.1). The”, “well. The plates are incubated at room temperature with shaking for 1 hour±5 minutes, following which the plates are washed four times with 400 μl per well per cycle of wash buffer.” for “well.”

[4] = molecular target: T1, anti-Complex I antibody (anti-HCMV …); assay: anti-CI clinical PK ELISA; coat 4.25B10.15 0.75 ug/mL; 8G8 8 ug/mL; against unspiked human serum
Protocol: as §1

[5] = molecular target: T1, anti-Complex I antibody (anti-HCMV …); assay: anti-CI clinical PK ELISA; coat 4.25B10.15 1 ug/mL; 8G8 0.5 ug/mL; against unspiked human serum
Protocol: as §1, with “The” for “Microtiter plates are coated overnight at 2-8° C. with 100 μl per well of 0.75 μg/ml anti-CI idiotypic antibody (in 0.05 M sodium carbonate buffer, pH 9.6±0.1). The”, “well. The plates are incubated at room temperature with shaking for 1 hour±5 minutes, following which the plates are washed four times with 400 μl per well per cycle of wash buffer.” for “well.”

[6] = molecular target: T1, anti-Complex I antibody (anti-HCMV …); assay: anti-CI clinical PK ELISA; coat 4.25B10.15 0.75 ug/mL; 8G8 16 ug/mL; against unspiked human serum
Protocol: as §1

[7] = molecular target: T1, anti-Complex I antibody (anti-HCMV …); assay: anti-CI clinical PK ELISA; coat 4.25B10.15 0.75 ug/mL; 8G8 0.25 ug/mL; against unspiked human serum
Protocol: as §1

[8] = molecular target: T1, anti-Complex I antibody (anti-HCMV …); assay: anti-CI clinical PK ELISA; coat 4.25B10.15 0.75 ug/mL; 8G8 0.5 ug/mL; against unspiked human serum
Protocol: as §1

[9] = molecular target: T1, anti-Complex I antibody (anti-HCMV …); assay: anti-CI clinical PK ELISA; coat 4.25B10.15 0.75 ug/mL; 8G8 0.125 ug/mL; against unspiked human serum
Protocol: as §1

[10] = molecular target: T1, anti-Complex I antibody (anti-HCMV …); assay: anti-CI clinical PK ELISA; coat 4.25B10.15 0.5 ug/mL; 8G8 1 ug/mL; against unspiked human serum
Protocol: as §1, with “The” for “Microtiter plates are coated overnight at 2-8° C. with 100 μl per well of 0.75 μg/ml anti-CI idiotypic antibody (in 0.05 M sodium carbonate buffer, pH 9.6±0.1). The”, “well. The plates are incubated at room temperature with shaking for 1 hour±5 minutes, following which the plates are washed four times with 400 μl per well per cycle of wash buffer.” for “well.”

[11] = molecular target: T1, anti-Complex I antibody (anti-HCMV …); assay: anti-CI clinical PK ELISA standard curve; anti-CI 1.25 ug/mL in 0.5% human serum pool; against background
Protocol: as §1

[12] = molecular target: T1, anti-Complex I antibody (anti-HCMV …); assay: anti-CI clinical PK ELISA; coat 4.25B10.15 1 ug/mL; 8G8 16 ug/mL; against unspiked human serum
Protocol: as §1, with “The” for “Microtiter plates are coated overnight at 2-8° C. with 100 μl per well of 0.75 μg/ml anti-CI idiotypic antibody (in 0.05 M sodium carbonate buffer, pH 9.6±0.1). The”, “well. The plates are incubated at room temperature with shaking for 1 hour±5 minutes, following which the plates are washed four times with 400 μl per well per cycle of wash buffer.” for “well.”

[13] = molecular target: T1, anti-Complex I antibody (anti-HCMV …); assay: anti-CI clinical PK ELISA standard curve; anti-CI 0.156 ug/mL in 0.5% human serum pool; against background
Protocol: as §1

[14] = molecular target: T1, anti-Complex I antibody (anti-HCMV …); assay: anti-CI clinical PK ELISA; coat 4.25B10.15 1 ug/mL; 8G8 0.25 ug/mL; against unspiked human serum
Protocol: as §1, with “The” for “Microtiter plates are coated overnight at 2-8° C. with 100 μl per well of 0.75 μg/ml anti-CI idiotypic antibody (in 0.05 M sodium carbonate buffer, pH 9.6±0.1). The”, “well. The plates are incubated at room temperature with shaking for 1 hour±5 minutes, following which the plates are washed four times with 400 μl per well per cycle of wash buffer.” for “well.”

[15] = molecular target: T1, anti-Complex I antibody (anti-HCMV …); assay: anti-CI clinical PK ELISA; coat 4.25B10.15 1 ug/mL; 8G8 4 ug/mL; against unspiked human serum
Protocol: as §1, with “The” for “Microtiter plates are coated overnight at 2-8° C. with 100 μl per well of 0.75 μg/ml anti-CI idiotypic antibody (in 0.05 M sodium carbonate buffer, pH 9.6±0.1). The”, “well. The plates are incubated at room temperature with shaking for 1 hour±5 minutes, following which the plates are washed four times with 400 μl per well per cycle of wash buffer.” for “well.”

[16] = molecular target: T1, anti-Complex I antibody (anti-HCMV …); assay: anti-CI clinical PK ELISA; coat 4.25B10.15 0.75 ug/mL; 8G8 1 ug/mL; against unspiked human serum
Protocol: as §1

[17] = molecular target: T1, anti-Complex I antibody (anti-HCMV …); assay: anti-CI clinical PK ELISA; coat 4.25B10.15 0.5 ug/mL; 8G8 4 ug/mL; against unspiked human serum
Protocol: as §1, with “The” for “Microtiter plates are coated overnight at 2-8° C. with 100 μl per well of 0.75 μg/ml anti-CI idiotypic antibody (in 0.05 M sodium carbonate buffer, pH 9.6±0.1). The”, “well. The plates are incubated at room temperature with shaking for 1 hour±5 minutes, following which the plates are washed four times with 400 μl per well per cycle of wash buffer.” for “well.”

[18] = molecular target: T1, anti-Complex I antibody (anti-HCMV …); assay: anti-CI clinical PK ELISA; coat 4.25B10.15 0.5 ug/mL; 8G8 0.25 ug/mL; against unspiked human serum
Protocol: as §1, with “The” for “Microtiter plates are coated overnight at 2-8° C. with 100 μl per well of 0.75 μg/ml anti-CI idiotypic antibody (in 0.05 M sodium carbonate buffer, pH 9.6±0.1). The”, “well. The plates are incubated at room temperature with shaking for 1 hour±5 minutes, following which the plates are washed four times with 400 μl per well per cycle of wash buffer.” for “well.”

[19] = molecular target: T1, anti-Complex I antibody (anti-HCMV …); assay: anti-CI clinical PK ELISA standard curve; anti-CI 2.5 ug/mL in 0.5% human serum pool; against background
Protocol: as §1

[20] = molecular target: T1, anti-Complex I antibody (anti-HCMV …); assay: anti-CI clinical PK ELISA standard curve; anti-CI 10 ug/mL in 0.5% human serum pool; against background
Protocol: as §1

[21] = molecular target: T1, anti-Complex I antibody (anti-HCMV …); assay: Biacore
[22] = molecular target: T1, anti-Complex I antibody (anti-HCMV …); assay: anti-CI clinical PK ELISA; coat 4.25B10.15 1 ug/mL; 8G8 0.125 ug/mL; against unspiked human serum
Protocol: as §1, with “The” for “Microtiter plates are coated overnight at 2-8° C. with 100 μl per well of 0.75 μg/ml anti-CI idiotypic antibody (in 0.05 M sodium carbonate buffer, pH 9.6±0.1). The”, “well. The plates are incubated at room temperature with shaking for 1 hour±5 minutes, following which the plates are washed four times with 400 μl per well per cycle of wash buffer.” for “well.”

[23] = molecular target: T1, anti-Complex I antibody (anti-HCMV …); assay: anti-CI clinical PK ELISA; coat 4.25B10.15 1 ug/mL; 8G8 1 ug/mL; against unspiked human serum
Protocol: as §1, with “The” for “Microtiter plates are coated overnight at 2-8° C. with 100 μl per well of 0.75 μg/ml anti-CI idiotypic antibody (in 0.05 M sodium carbonate buffer, pH 9.6±0.1). The”, “well. The plates are incubated at room temperature with shaking for 1 hour±5 minutes, following which the plates are washed four times with 400 μl per well per cycle of wash buffer.” for “well.”

[24] = molecular target: T1, anti-Complex I antibody (anti-HCMV …); assay: anti-CI clinical PK ELISA; coat 4.25B10.15 0.5 ug/mL; 8G8 16 ug/mL; against unspiked human serum
Protocol: as §1, with “The” for “Microtiter plates are coated overnight at 2-8° C. with 100 μl per well of 0.75 μg/ml anti-CI idiotypic antibody (in 0.05 M sodium carbonate buffer, pH 9.6±0.1). The”, “well. The plates are incubated at room temperature with shaking for 1 hour±5 minutes, following which the plates are washed four times with 400 μl per well per cycle of wash buffer.” for “well.”

[25] = molecular target: T1, anti-Complex I antibody (anti-HCMV …); assay: anti-CI clinical PK ELISA; coat 4.25B10.15 0.5 ug/mL; 8G8 8 ug/mL; against unspiked human serum
Protocol: as §1, with “The” for “Microtiter plates are coated overnight at 2-8° C. with 100 μl per well of 0.75 μg/ml anti-CI idiotypic antibody (in 0.05 M sodium carbonate buffer, pH 9.6±0.1). The”, “well. The plates are incubated at room temperature with shaking for 1 hour±5 minutes, following which the plates are washed four times with 400 μl per well per cycle of wash buffer.” for “well.”

[26] = molecular target: T1, anti-Complex I antibody (anti-HCMV …); assay: anti-CI clinical PK ELISA standard curve; anti-CI 0.313 ug/mL in 0.5% human serum pool; against background
Protocol: as §1

[27] = molecular target: T1, anti-Complex I antibody (anti-HCMV …); assay: anti-CI clinical PK ELISA standard curve; anti-CI 0.625 ug/mL in 0.5% human serum pool; against background
Protocol: as §1

[28] = molecular target: T1, anti-Complex I antibody (anti-HCMV …); assay: anti-CI clinical PK ELISA; coat 4.25B10.15 0.5 ug/mL; 8G8 0.5 ug/mL; against unspiked human serum
Protocol: as §1, with “The” for “Microtiter plates are coated overnight at 2-8° C. with 100 μl per well of 0.75 μg/ml anti-CI idiotypic antibody (in 0.05 M sodium carbonate buffer, pH 9.6±0.1). The”, “well. The plates are incubated at room temperature with shaking for 1 hour±5 minutes, following which the plates are washed four times with 400 μl per well per cycle of wash buffer.” for “well.”

[29] = molecular target: T1, anti-Complex I antibody (anti-HCMV …); assay: anti-CI clinical PK ELISA; coat 4.25B10.15 1 ug/mL; 8G8 8 ug/mL; against unspiked human serum
Protocol: as §1, with “The” for “Microtiter plates are coated overnight at 2-8° C. with 100 μl per well of 0.75 μg/ml anti-CI idiotypic antibody (in 0.05 M sodium carbonate buffer, pH 9.6±0.1). The”, “well. The plates are incubated at room temperature with shaking for 1 hour±5 minutes, following which the plates are washed four times with 400 μl per well per cycle of wash buffer.” for “well.”

[30] = molecular target: T1, anti-Complex I antibody (anti-HCMV …); assay: anti-CI clinical PK ELISA standard curve; anti-CI 20 ug/mL in 0.5% human serum pool; against background
Protocol: as §1

T1 sequence (VH, as listed by the source, chain 1 of 2): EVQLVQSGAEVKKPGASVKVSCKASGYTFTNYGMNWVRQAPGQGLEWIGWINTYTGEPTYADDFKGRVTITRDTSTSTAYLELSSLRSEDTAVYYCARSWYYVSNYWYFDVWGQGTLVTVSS
T1 sequence (VL, as listed by the source, chain 2 of 2): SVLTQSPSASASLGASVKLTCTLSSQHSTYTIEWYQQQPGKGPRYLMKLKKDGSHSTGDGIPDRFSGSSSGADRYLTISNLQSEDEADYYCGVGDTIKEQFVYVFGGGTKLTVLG

B1: murine mAb 4.25B10.15 (antibody, IgG1, V domains shown)
VH: QVQLQQSGAELVRPGTSVKVSCKASGYAFTNYLIEWVKQRPGQGLEWIGVINPGSGGTNYNEKFEAKATLTADKSSSTAYMQLSSLTSDDSAVYFCARHGSSYWYFDVWGAGTTVTVSS
VL: DIVMTQSPATLSVTPGDRVSLSCRASQSISDYLHWYQQKSHESPRLLIKYASQSISGIPSRFSGSGSGSDFTLSINSVEPEDVGVYYCQNGHSFPYTFGGGTKLEIK
notes: also called anti-CI idiotypic antibody; anti-CI anti-ID mAb
Work on B1 yielded a Signal/bkgd ratio [1] of 13.3 ratio, a S/B ratio [2] of 13.6 ratio and a Signal/bkgd ratio [3] of 1.4 ratio. The Signal/bkgd ratio [4] was 16.5 ratio, the Signal/bkgd ratio [5] was 2.7 ratio and the Signal/bkgd ratio [6] was 19.1 ratio. The Signal/bkgd ratio [7] was 2.1 ratio, the Signal/bkgd ratio [8] was 3.2 ratio and the Signal/bkgd ratio [9] was 1.5 ratio. For the same binder, the Signal/bkgd ratio [10] was 4.3 ratio, the S/B ratio [11] was 4.9 ratio and the Signal/bkgd ratio [12] was 13.8 ratio. It also gave a S/B ratio [13] of 1.5 ratio, a Signal/bkgd ratio [14] of 1.9 ratio and a Signal/bkgd ratio [15] of 10 ratio. The Signal/bkgd ratio [16] was 5.3 ratio, the Signal/bkgd ratio [17] was 10.4 ratio and the Signal/bkgd ratio [18] was 1.8 ratio. The S/B ratio [19] was 8.4 ratio, the S/B ratio [20] was 19.6 ratio and the Kd [21] was 4.7 nM. The Signal/bkgd ratio [22] was 1.4 ratio, the Signal/bkgd ratio [23] was 4.4 ratio and the Signal/bkgd ratio [24] was 14.7 ratio. For the same binder, the Signal/bkgd ratio [25] was 12.3 ratio, the S/B ratio [26] was 2 ratio and the S/B ratio [27] was 3 ratio. For the same binder, the Signal/bkgd ratio [28] was 2.7 ratio, the Signal/bkgd ratio [29] was 13 ratio and the S/B ratio [30] was 22.3 ratio.
